Among the data in patent US20040110663A1 are inhibition of luciferase expression in S12 cells (gli-Luc assay, S12/RT-4 co-cultures) and inhibition of luciferase expression in S12 cells (gli-Luc assay, S12/RT-4 co-cultures), IC90 values, retold here.

The experiment addresses Sonic hedgehog (Shh), human, as secreted by human cancer cell lines in co-culture (human). The experiment can be described thus: cell-based or functional assay.

Turning to Shh blocking antibody 5E1, the inhibition of luciferase expression in S12 cells (gli-Luc assay, S12/RT-4 co-cultures) was 85 ng/mL and the inhibition of luciferase expression in S12 cells (gli-Luc assay, S12/RT-4 co-cultures), IC90 worked out at 0.5 µg/mL.
